Source: the Human Domainome abundance scans (Beltran et al. 2025)

B1: 3'-5' exoribonuclease 1, residues 65 to 114; numbered along this chain, Q8IV48 (parent)
chain: VYKEIAITNGCINRMSKEELRAKLSEFKLETRGVKDVLKKRLKNYYKKQK

Variants of: B1
Assay: abundance fitness (aPCA) (normalised: wild type 0, dead -1); higher = more abundant; growth selection in yeast, the domain comes from the species named
Conditions: Homo sapiens

Abundance fitness: each site, then its substitutions
K43: D -0.737; C -0.823; L -0.593; F -0.755; R -0.366; M -0.506; G -0.846; V -0.597; A -0.579; I -0.448; H -0.729; P -0.806; Y -0.723; N -0.39; T -0.55; Q -0.469; E -0.712
N44: R 0.017; M -0.164; S -0.087; K 0.05; C -0.211; E -0.193; P -0.767; Y -0.27; F -0.306; G -0.158; T -0.086; V -0.318; L -0.168; Q -0.063; A -0.021; W -0.376; H -0.065
Y46: E -0.703; K -0.32; W -0.229; I 0.114; M 0.111; S -0.277; C 0.066; N -0.268; Q -0.166; G -0.533; L 0.079; F 0.116; P -1; T -0.125
L42: C -0.925; H -0.907; E -0.892; F -0.551; W -0.888; P -0.999; N -0.918; K -1.04; V -0.754; S -0.511; M -0.611; G -0.871; D -0.961; Q -0.912; Y -0.969; T -1.1; A -0.918
K40: N -0.319; V -0.669; Y -0.7; P -0.951; E -0.44; W -0.985; F -0.992; L -0.608; I -0.819; A -0.427; M -0.634; C -0.705; T -0.398; G -0.777; H -0.576; S -0.521; D -0.741
K39: V -0.196; M -0.521; Q -0.398; N -0.582; D -0.967; E -0.939; T -0.458; G -0.721; A -0.36; W -1.04; Y -0.917; L -0.632; C -0.396; I -0.382; F -0.909; P -0.979; R -0.114; H -1.11
K48: G -0.25; F -0.51; N -0.164; P -0.87; M -0.22; S -0.158; D -0.329; I -0.611; A -0.187; Q -0.211; C -0.323; L -0.264; R -0.072; H -0.213; T -0.175
R41: S -0.641; C -1.01; V -1.02; E -1.02; H -1.02; K -0.914; W -0.975; D -1.09; I -0.865; Y -0.941; T -0.963; Q -0.992; M -0.803; A -0.891; N -0.895; F -0.887; P -0.803
K47: Q -0.325; W -0.608; R -0.132; Y -0.533; M -0.34; D -0.643; V -0.422; L -0.381; I -0.415; G -0.447; A -0.288; C -0.491; F -0.572; N -0.155; T -0.416; H -0.409
Y45: S -0.279; C -0.399; H -0.048; E -0.63; F -0.094; N -0.64; M -0.643; R -0.878; P -0.995; T -1; D -0.954; V -0.8; I -0.664; G -0.891; A -0.383; L -0.637; K -0.916; Q -0.876; W -0.051
